Results from US20210347873A1 (SHANGHAI PHARMAEXPLORER, published 2021).

Assays:
biotinylated hBLyS-ECD [1] = target: T1, biotinylated hBLyS-ECD (human, UniProt Q9Y275 134-285, biotinylated with Biotin-X-X-NHS (molar ratio 7:1); sites not stated); assay: blocking ELISA: biotinylated hBLyS-ECD on coated BAFF R, antibody 0.032 nM
T1 construct: also called biotinylated immunogen; BLyS protein
Protocol: BAFF R (purchased from R & D Systems) was aliquoted into 96-well ELISA plate at 50 ng per well, and the plate was sealed with plastic film and incubated overnight at 4° C. On the next day the plate was washed four times with the plate washing buffer [PBS buffer containing 0.05% (v/v) Tween20] and added with blocking solution [PBS buffer containing 0.05% (v/v) Tween20 and 1% (w/w) BSA], then blocked for 1 hour at room temperature. The blocking solution was removed and 50 μL per well of the lead antibodies prepared in Embodiment 1 and 2 were added followed by the addition of 50 μL per well of the biotinylated hBLyS-ECD prepared in Embodiment 2. After incubation for 1 hour at 37° C., the plate was washed four times with the plate washing buffer [PBS buffer containing 0.05% (v/v) Tween20]. 100 μL per well of HRP-labeled (horseradish peroxidase) avidin (purchased from Sigma) was added and incubated at 37° C. for 1 hour. The plate was then washed four times with the plate washing buffer [PBS buffer containing 0.05% (v/v) Tween20]. 100 μL of TMB substrate was aliquoted into each well and after incubation for 5 minutes at room temperature, then 100 μL of stop solution (1.0 N HCl) was aliquoted into each well. A₄₅₀ₙₘ values were read with an ELISA plate reader (SpectraMax 384plus, Molecular Device) and the results were shown in FIGS. 9A-9B and Table 15. It was shown in Table 15 that the binding of BLyS protein to its receptor BAFF R could be blocked by the BLyS antibody.

[2] = target: T2, hBLyS-ECD (His-tagged extracellular domain of human BLyS protein, Ala134-Leu285) (human, UniProt Q9Y275 134-285); assay: SPR (Biacore X100), antibody captured by anti-human Fc on CM5, hBLyS-ECD injected
T2 construct: Expressed in HEK293, purified on Ni column; also called immunogen
Protocol: Affinity constants were determined using a Biacore X100 instrument (purchased from GE Healthcare). Detailed operations and methods referred to the instrument manuals and detailed methods provided by manufacturers, specifically: determining affinity constant using a CM5 chip (Sensor Chip CM5, purchased from GE Healthcare). […] Then 1 M ethanolamine was injected in chip to block the remaining activation sites. After the antibody to be tested (i.e., the human BLyS antibody prepared by Embodiment 2) was captured by chip, 7 different gradient of immunogen dilutions (i.e., hBLyS-ECD) prepared by Embodiment 1 were injected and the binding and dissociation of antigen with antibody was detected by a Biacore instrument. The dissociation constant and binding constant were then fitted by Biacore X100 Evaluation Software 2.0, while the affinity constant was the ratio of dissociation constant to binding constant.

biotinylated hBLyS-ECD [3] = target: T1, biotinylated hBLyS-ECD; assay: competitive ELISA on biotinylated hBLyS-ECD; competitor L9G7
Protocol: The purified human BLyS antibody and hybridoma antibody were subjected to competitive enzyme-linked immunosorbent assay and the epitopes binding by different antibodies were analyzed.
Purified BLyS antibody was first diluted to a final concentration of 1.0 μg/mL with PBS, then aliquoted into a 96-well ELISA plate at 50 μL per well, and the plate was subsequently sealed with plastic film and incubated at 4° C. overnight. On the next day the plate was rinsed four times with the plate washing buffer [PBS buffer containing 0.05% (v/v) Tween20] and mixed with blocking solution [PBS buffer containing 0.05% (v/v) Tween20 and 1% (w/w) BSA], and then blocked at 37° C. for 1 hour. The blocking solution was removed, and the competitive antibody and IgG control were diluted to a final concentration of 40 μg/mL with PBS and then aliquoted into the 96-well ELISA plate at 50 μL per well. The biotinylated hBLyS-ECD was then diluted with PBS to a final concentration of 2 ng/mL and pipetted into the 96-well ELISA plate at 50 μL per well. The final concentration of competitive antibody and hBLyS-ECD was 20 μg/mL and 1 ng/mL, respectively. After incubation at 37° C. for 1 hour, the plate was rinsed four times with the plate washing buffer [PBS buffer containing 0.05% (v/v) Tween20]. 100 μL per well of HRP-labeled (horseradish peroxidase) streptavidin (purchased from Sigma) was added into the plate and the plate was incubated at 37° C. for 1 hour. The plate was then washed four times with the plate washing buffer [PBS buffer containing 0.05% (v/v) Tween20]. 100 μL of TMB substrate was aliquoted into each well and after incubation at room temperature for 5 minutes, 100 μL of stop solution (1.0 N HCl) was aliquoted into each well. A₄₅₀ₙₘ values were read by an ELISA plate reader (SpectraMax M5e, purchased from Molecular Device) and the results were shown in Tables 18A-18B. […] The data shown in the table is the inhibitory rate (%) of the binding level of the original antibody to hBLyS-ECD after addition of the competitive antibody.

biotinylated hBLyS-ECD [4] = target: T3, biotinylated hBLyS-ECD (human, UniProt Q9Y275 134-285, biotinylated with Biotin-X-X-NHS (molar ratio 7:1), sites not stated); assay: ELISA, biotinylated hBLyS-ECD captured on streptavidin; antibody 0.107 nM
T3 construct: The hBLyS-ECD of Embodiment 1 after biotinylation (Embodiment 2); also called biotinylated immunogen; BLyS protein; not shown: His tag of the pCPC vector
Protocol: Streptavidin was first diluted to a final concentration of 1.0 μg/mL with PBS, and then 50 μL of diluted streptavidin per well was aliquoted into 96-well ELISA plate, which was subsequently sealed with plastic film and incubated at 4° C. overnight. On the next day the plate was washed four times with the plate washing buffer [PBS buffer containing 0.05% (v/v) Tween20] and added with the blocking solution [PBS buffer containing 0.05% (v/v) Tween20 and 1% (w/w) BSA] and blocked for 2 hours at 37° C. The blocking solution was removed, the biotinylated hBLyS-ECD prepared in Embodiment 2 was diluted with PBS to a final concentration of 50 ng/mL and then aliquoted into the 96-well ELISA plate at 50 μL per well and incubated for 1 hour at 37° C. After rinsing the plate four times with the plate washing buffer [PBS buffer containing 0.05% (v/v) Tween20], 100 μl of the purified lead antibody harvested in Embodiment 1 and 2 was pipetted into each well. After incubation for 1 hour at 37° C., the plate was rinsed four times with the plate washing buffer [PBS buffer containing 0.05% (v/v) Tween20]. HRP-labeled (horseradish peroxidase) secondary antibody (purchased from Sigma) was added in and incubated at 37° C. for 1 hour. The plate was then rinsed four times with the plate washing buffer [PBS buffer containing 0.05% (v/v) Tween20]. 100 μL of TMB substrate was aliquoted into each well and after incubation for 5 minutes at room temperature, 100 μL of stop solution (1.0 N HCl) was aliquoted into each well. A₄₅₀ₙₘ values were read via an ELISA plate reader (SpectraMax M5e purchased from Molecular Devices) and the results were shown in FIGS. 5A-5B and Table 10.

T1 sequence (Q9Y275 134-285): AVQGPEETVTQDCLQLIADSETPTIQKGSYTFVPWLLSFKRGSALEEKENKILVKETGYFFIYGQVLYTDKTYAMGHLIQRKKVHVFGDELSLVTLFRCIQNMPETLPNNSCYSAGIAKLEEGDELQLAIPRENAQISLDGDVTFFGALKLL
T3 sequence (Q9Y275 134-285): as above

Row | Binder | OD450 nm (biotinylated hBLyS-ECD [1]) | Kd [2] | koff [2] | kon [2] | inhibitory rate (%) (biotinylated hBLyS-ECD [3]) | OD450 nm (biotinylated hBLyS-ECD [4])
1 | 8E7D9C7F5 (antibody, V domains shown, Mouse hybridoma monoclonal antibody purified on Protein G) VH: QVQLQQSGVELARPGASVKLSCKASGYTFTSYGISWVKQRTGQALEWIGEIYPRSGNTYYNEKFKGKATLTADKSSSTAYMELRSLTSEDSAVYFCARSGPITTLVATDYGMDYWGQGTSVTVSS VL: DIVLTQSPASLAVSLGQRATISCRASKSVSTSSYSYMHWYQQKPGQPPKLLIKFASNLESGVPARFSGSGSGTDFTLNIHPVEEEDAATYYCQHSREFPYTFGGGTKLEIK | 1.05 OD450 nm | – | – | – | – | –
2 | 2-1G11 (antibody, V domains shown, From a human naive scFv phage library; also called human BLyS antibody 2-1G11) VH: EVQLVESRGGVVQPGRSLRLSCAASGFTFSSYGMHWVRQAPGKGLEWVAVISYDGSNKYYADSVKGRFTISRDNSKNTLYLQMNSLRAEDAAVYYCARDRVDILTGYSIYGMDVWGQGTTVTVSS VL: EIVMTQSPATLSLSPGERATLSCRASQSVSSYLAWYQQKPGQAPRLLIYDASKRATGIPARFSGSGSGTDFTLTISSLEPEDFAVYYCQQRSNWPLTFGGGTKVEIK | – | 0.637 nM | 0.000946 s⁻¹ | 1.48e+06 M⁻¹ s⁻¹ | 79% | –
3 | L9G7 (antibody, human IgG1, V domains shown) VH: QIQLVQSGAEVKKPGASVKVSCKASGYTFTSYGISWVRQAPGQGLEWMGWISAYNGNTNYAQKLQGRVTMTTDTSTSTAYMELRSLRSDDTAVYYCARTYYDILTGYYYYGMDVWGQGTTVTVSS VL: EIVLTQSPGTLSLSPGERATLSCRTSQSVDTYLAWYQQKPGQAPRLLIYDASNRATGIPARFSGSGSGTDFTLTISSLEPEDFAVYYCQQRSNWPLTFGGGTKVEIK | – | – | – | – | – | 0.528
4 | L9G7 (antibody, V domains shown, From a human naive scFv phage library; also called human BLyS antibody L9G7) VH: QIQLVQSGAEVKKPGASVKVSCKASGYTFTSYGISWVRQAPGQGLEWMGWISAYNGNTNYAQKLQGRVTMTTDTSTSTAYMELRSLRSDDTAVYYCARTYYDILTGYYYYGMDVWGQGTTVTVSS VL: EIVLTQSPGTLSLSPGERATLSCRTSQSVDTYLAWYQQKPGQAPRLLIYDASNRATGIPARFSGSGSGTDFTLTISSLEPEDFAVYYCQQRSNWPLTFGGGTKVEIK | – | 0.525 nM | 0.000244 s⁻¹ | 465000 M⁻¹ s⁻¹ | 95% | –
5 | L1D12 (antibody, V domains shown, From a human naive scFv phage library; also called human BLyS antibody L1D12; LID12) VH: QVQLVQSGGGLVQPGGSLRLSCAASGFTVSSNYMSWVRQAPGKGLEWVSVIYSGGSTYYADSVKGRFTISRDNSKNTLYLQMNSLRAEDTAVYYCARGFHDILTGYGMDVWGQGTTVTVSS VL: SSELTQDPAVSVALGQTVRITCQGDSLRNYYAGWYQQKPGQAPVLVIYGKNNRPSGIPDRFSGSSSGNTASLTITGTQAEDEADYYCSSRDNSGTHLVEFGGGTKLTVL | – | 2.42 nM | 0.00136 s⁻¹ | 561000 M⁻¹ s⁻¹ | 90% | –
6 | L1D12 (antibody, human IgG1, V domains shown, also called LID12) VH: QVQLVQSGGGLVQPGGSLRLSCAASGFTVSSNYMSWVRQAPGKGLEWVSVIYSGGSTYYADSVKGRFTISRDNSKNTLYLQMNSLRAEDTAVYYCARGFHDILTGYGMDVWGQGTTVTVSS VL: SSELTQDPAVSVALGQTVRITCQGDSLRNYYAGWYQQKPGQAPVLVIYGKNNRPSGIPDRFSGSSSGNTASLTITGTQAEDEADYYCSSRDNSGTHLVEFGGGTKLTVL | – | – | – | – | – | 0.678
7 | 97A3C2H4 (antibody, V domains shown, Mouse hybridoma monoclonal antibody purified on Protein G) VH: EVKLVESGGGLVQPGGSLKLSCAASGFTFSTYTMSWVRQTPEKRLEWVAYISYGGGSTSYPDTVKGRFTISRDNAKNTLYLQMSSLKSEDTAIYYCTRHVTVVENSMDYWGQGTSVTVSS VL: DILLTQSPDILSVSPGERVSFSCRASQSIGTSIHWYQQRTNGSPRLLIKYVSESFSGTPSRFSGSGSGTAFTLTINSVESEDIADYYCQQTHSWPWTFGGGTKLEIK | 1.12 OD450 nm | – | – | – | – | –
8 | 97A3C2H4 (antibody, V domains shown, Mouse hybridoma antibody purified on Protein G) VH: EVKLVESGGGLVQPGGSLKLSCAASGFTFSTYTMSWVRQTPEKRLEWVAYISYGGGSTSYPDTVKGRFTISRDNAKNTLYLQMSSLKSEDTAIYYCTRHVTVVENSMDYWGQGTSVTVSS VL: DILLTQSPDILSVSPGERVSFSCRASQSIGTSIHWYQQRTNGSPRLLIKYVSESFSGTPSRFSGSGSGTAFTLTINSVESEDIADYYCQQTHSWPWTFGGGTKLEIK | – | – | – | – | – | 0.899
9 | 111D10D6G3 (antibody, V domains shown, Mouse hybridoma monoclonal antibody purified on Protein G) VH: QVQLQQPGAELVKPGASVKMSCKASGYTFTRHWITWVKQRPGQGLEWIGDIFPGSGSINYNEKFKSEATLTVEKSSSTAYMQLSSLTSEDSAVYYCARGDVDVWGTGTTVTVSS VL: DIQMTQSPSSLSASLGERVSLTCRASQEIRGYLSWLQQKPNGTIKRLIYAASTLDSGVPKRFSATRSGSDFSLTISSLESEDFADYYCLQYASYPFTFGSGTKLEIK | 1.14 OD450 nm | – | – | – | – | –
10 | 111D10D6G3 (antibody, V domains shown, Mouse hybridoma antibody purified on Protein G) VH: QVQLQQPGAELVKPGASVKMSCKASGYTFTRHWITWVKQRPGQGLEWIGDIFPGSGSINYNEKFKSEATLTVEKSSSTAYMQLSSLTSEDSAVYYCARGDVDVWGTGTTVTVSS VL: DIQMTQSPSSLSASLGERVSLTCRASQEIRGYLSWLQQKPNGTIKRLIYAASTLDSGVPKRFSATRSGSDFSLTISSLESEDFADYYCLQYASYPFTFGSGTKLEIK | – | – | – | – | – | 0.613
